T1: α-Catenin (endogenous, from HaCaT cells), P35221
T1 chain: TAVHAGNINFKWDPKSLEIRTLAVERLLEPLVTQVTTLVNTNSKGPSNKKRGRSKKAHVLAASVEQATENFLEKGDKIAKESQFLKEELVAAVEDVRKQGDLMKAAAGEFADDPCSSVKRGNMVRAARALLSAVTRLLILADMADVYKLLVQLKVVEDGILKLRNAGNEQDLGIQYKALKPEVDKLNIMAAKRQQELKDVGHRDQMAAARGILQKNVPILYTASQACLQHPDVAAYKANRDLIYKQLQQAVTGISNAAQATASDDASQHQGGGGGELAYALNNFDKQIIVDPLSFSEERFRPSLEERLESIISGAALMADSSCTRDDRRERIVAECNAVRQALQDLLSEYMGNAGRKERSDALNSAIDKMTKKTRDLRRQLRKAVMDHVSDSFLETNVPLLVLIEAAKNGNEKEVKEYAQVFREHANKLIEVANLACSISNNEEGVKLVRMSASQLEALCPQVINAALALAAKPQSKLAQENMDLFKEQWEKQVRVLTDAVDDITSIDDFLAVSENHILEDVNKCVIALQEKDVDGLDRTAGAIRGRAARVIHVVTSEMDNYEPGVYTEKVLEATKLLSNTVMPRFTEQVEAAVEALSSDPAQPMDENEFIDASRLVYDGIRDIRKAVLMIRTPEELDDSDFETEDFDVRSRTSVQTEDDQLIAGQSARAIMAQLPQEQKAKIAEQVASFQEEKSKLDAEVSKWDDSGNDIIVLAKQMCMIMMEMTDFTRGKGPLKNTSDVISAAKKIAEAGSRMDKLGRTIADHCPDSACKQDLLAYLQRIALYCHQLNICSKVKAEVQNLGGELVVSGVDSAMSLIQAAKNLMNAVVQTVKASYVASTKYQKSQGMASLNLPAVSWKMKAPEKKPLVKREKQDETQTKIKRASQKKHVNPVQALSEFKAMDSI

T2: Recombinant human α-Catenin protein
T2 chain: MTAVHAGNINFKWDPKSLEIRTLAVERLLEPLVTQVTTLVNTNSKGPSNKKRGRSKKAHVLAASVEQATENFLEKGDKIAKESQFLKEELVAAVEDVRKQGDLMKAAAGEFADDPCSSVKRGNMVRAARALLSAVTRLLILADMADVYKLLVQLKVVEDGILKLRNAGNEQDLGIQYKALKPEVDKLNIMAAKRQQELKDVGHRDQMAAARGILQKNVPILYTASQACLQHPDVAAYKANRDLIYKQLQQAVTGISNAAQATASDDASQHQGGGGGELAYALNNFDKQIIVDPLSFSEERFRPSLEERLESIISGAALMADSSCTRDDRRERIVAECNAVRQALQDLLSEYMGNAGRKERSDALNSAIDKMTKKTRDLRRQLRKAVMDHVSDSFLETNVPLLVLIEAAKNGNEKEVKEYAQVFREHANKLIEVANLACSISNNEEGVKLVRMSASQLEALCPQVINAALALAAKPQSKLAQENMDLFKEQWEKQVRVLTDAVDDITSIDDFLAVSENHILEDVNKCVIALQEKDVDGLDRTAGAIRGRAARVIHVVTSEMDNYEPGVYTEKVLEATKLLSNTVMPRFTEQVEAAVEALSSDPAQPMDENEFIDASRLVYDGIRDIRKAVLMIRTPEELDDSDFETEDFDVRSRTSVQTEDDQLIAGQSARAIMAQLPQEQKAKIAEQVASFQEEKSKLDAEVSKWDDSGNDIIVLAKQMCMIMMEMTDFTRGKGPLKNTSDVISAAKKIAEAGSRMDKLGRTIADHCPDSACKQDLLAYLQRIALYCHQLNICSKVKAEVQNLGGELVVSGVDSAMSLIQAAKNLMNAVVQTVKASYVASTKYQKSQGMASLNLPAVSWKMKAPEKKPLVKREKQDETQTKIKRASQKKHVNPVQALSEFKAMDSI

B1: recombinant human active caspase-3 (protein)
chain: SGISLDNSYKMDYPEMGLCIIINNKNFHKSTGMTSRSGTDVDAANLRETFRNLKYEVRNKNDLTREEIVELMRDVSKEDHSKRSSFVCVLLSHGEEGIIFGTNGPVDLKKITNFFRGDRCRSLTGKPKLFIIQACRGTELDCGIETDSGVDDDMACHKIPVEADFLYAYSTAPGYYSWRNSKDGSWFIQSLCAMLKQYADKLEFMHILTRVNRKVATEFESFSFDATFHAKKQIPCIVSMLTKELYFYH
B2: activated (cleaved) Caspase-3 (endogenous, from mouse dorsal skin) (enzyme, UniProt P70677 29-277, looked up)
chain: SGIYLDSSYKMDYPEMGICIIINNKNFHKSTGMSSRSGTDVDAANLRETFMGLKYQVRNKNDLTREDILELMDSVSKEDHSKRSSFVCVILSHGDEGVIYGTNGPVELKKLTSFFRGDYCRSLTGKPKLFIIQACRGTELDCGIETDSGTDEEMACQKIPVEADFLYAYSTAPGYYSWRNSKDGSWFIQSLCSMLKLYAHKLEFMHILTRVNRKVATEFESFSLDSTFHAKKQIPCIVSMLTKELYFYH
notes: also called CP3

How the values were obtained:
[1] = target: T1, α-Catenin (endogenous, from HaCaT …)
[2] = target: T2, Recombinant human α-Catenin protein
[3] = target: recombinant mouse H3/H4 heterodimer, P62806
[4] = target: Yes associated protein 1 (YAP) (endogenous, from mouse dorsal skin) (mouse, UniProt P46938 1-488, limits assumed); assay: co-immunoprecipitation of endogenous proteins from mouse skin, Western blot
Yes associated protein 1 (YAP) (endogenous, from mouse dorsal skin), sequence (P46938 whole entry): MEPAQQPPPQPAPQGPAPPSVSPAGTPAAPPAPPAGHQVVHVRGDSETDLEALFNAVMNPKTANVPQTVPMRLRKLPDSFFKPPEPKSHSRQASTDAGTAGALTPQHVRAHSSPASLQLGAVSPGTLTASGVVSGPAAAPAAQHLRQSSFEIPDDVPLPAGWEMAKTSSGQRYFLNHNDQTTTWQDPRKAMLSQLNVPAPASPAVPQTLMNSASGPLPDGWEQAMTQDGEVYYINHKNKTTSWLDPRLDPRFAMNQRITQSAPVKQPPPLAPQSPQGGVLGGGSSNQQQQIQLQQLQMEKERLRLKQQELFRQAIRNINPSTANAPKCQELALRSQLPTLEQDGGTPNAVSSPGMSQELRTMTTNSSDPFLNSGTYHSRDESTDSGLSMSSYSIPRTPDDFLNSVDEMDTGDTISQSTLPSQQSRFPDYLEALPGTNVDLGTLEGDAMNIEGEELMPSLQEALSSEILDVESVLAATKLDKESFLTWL
Experimental: Protein extraction, Western Blot and Co-immunoprecipitation—Skin tissues were disrupted using homogenizer. Cells were washed with ice-cold PBS and collected on ice before centrifugation (4,000 rpm, 5 minutes at 4° C.), lysed in lysis buffer with protease inhibitors, and then incubated on ice for 30 minutes. After centrifugation (14,000 rpm, 15 minutes at 4° C.), the proteins (supernatant) were removed and quantified (Bradford reagent, BioRad). The NE-PER Nuclear and Cytoplasmic Extraction Reagents Kit (Thermo Scientific) was used to separate cellular fractions. For CO-IP, equal amounts of cell lysates were incubated with antibody, and immunocomplexes were captured on Protein-A/G Agarose beads. […] Membranes were blocked in 5% dry skimmed milk in PBS-T and incubated with primary antibodies (1:1000).

Binder | cleavage in HaCaT protein lysate, Western blot with antibodies for the C and N termini of α-Catenin [1] | release of 14-3-3 from α-Catenin pull-down complexes after in vitro cleavage, Western blot [1] | in vitro cleavage assay, SDS-electrophoresis and Coomassie staining [2] | in vitro cleavage assay, Coomassie staining [3] | binding result [4]
B1 | addition of cleaved Caspase-3 results in a major decrease in the level of full-length α-Catenin | Caspase-3-mediated cleavage facilitates the release of 14-3-3 from α-Catenin | a dramatic decrease in the levels of full length α-Catenin (FIG. 4M) (Caspase-3 cleaved α-Catenin), giving rise to two novel bands at a molecular weight of ˜14 kDa and ˜17 kDa | Caspase-3 was not able to cleave either histones H2A/H2B or H3/H4 | –
B2 | – | – | – | – | no binding

Reference: patent US20200046796A1 (TECHNION RESEARCH AND DEVELOPMENT FOUNDATION, published 2020)
